Numbering of substitutions follows the chain as printed. Numbers in names are those of the source.
B1: C.Esp1396I wild type (RM controller protein) (natural protein)
chain: MESFLLSKVSFVIKKIRLEKGMTQEDLAYKSNLDRTYISGIERNSRNLTIKSLELIMKGLEVSDVVFFEMLIKEILKHD
notes: controller (C) protein C.Esp1396I of the Esp1396I restriction-modification system; Residues may be left at the N-terminus after thrombin cleavage; also called native protein; WT; not shown: His6, N-terminal, cleaved
B2: C.Esp1396I R46A mutant (natural protein)
chain: B1 chain with R46A
notes: controller (C) protein C.Esp1396I with R46A; Crystallised in two space groups (C2 and P3(2)); not shown: His6, N-terminal, cleaved
B3: C.Esp1396I S52A mutant (natural protein)
chain: B1 chain with S52A
notes: controller (C) protein C.Esp1396I with S52A; Gene synthesised by GenScript; not shown: His6, N-terminal, cleaved
B4: C.Esp1396I Y37F mutant (natural protein)
chain: B1 chain with Y37F
notes: controller (C) protein C.Esp1396I with Y37F; Gene synthesised by GenScript; not shown: His6, N-terminal, cleaved
B5: C.Esp1396I T36A mutant (natural protein)
chain: B1 chain with T36A
notes: controller (C) protein C.Esp1396I with T36A; not shown: His6, N-terminal, cleaved
B6: C.Esp1396I Y37A mutant (natural protein)
chain: B1 chain with Y37A
notes: controller (C) protein C.Esp1396I with Y37A; Gene synthesised by GenScript; not shown: His6, N-terminal, cleaved

Columns and labels:
[1] = system: C.Esp1396I R46A (Enterobacter sp. RFL1396?); experiment: SPR; settings: SPR (Biacore T-100): 130 mM NaCl, 10 mM HEPES pH 7.4, 0.05% Tween-20; temperature not stated; 20-1000 nM total protein
[2] = system: C.Esp1396I S52A (Enterobacter sp. RFL1396?); experiment: SPR; settings: SPR (Biacore T-100): 130 mM NaCl, 10 mM HEPES pH 7.4, 0.05% Tween-20; temperature not stated; 20-1000 nM total protein
[3] = system: C.Esp1396I Y37A (Enterobacter sp. RFL1396?); experiment: SPR; settings: SPR (Biacore T-100): 130 mM NaCl, 10 mM HEPES pH 7.4, 0.05% Tween-20; temperature not stated; 20-1000 nM total protein
[4] = system: C.Esp1396I Y37F (Enterobacter sp. RFL1396?); experiment: SPR; settings: SPR (Biacore T-100): 130 mM NaCl, 10 mM HEPES pH 7.4, 0.05% Tween-20; temperature not stated; 20-1000 nM total protein
[5] = system: C.Esp1396I wild type (Enterobacter sp. RFL1396?); experiment: SPR; settings: SPR (Biacore T-100): 130 mM NaCl, 10 mM HEPES pH 7.4, 0.05% Tween-20; temperature not stated; 20-1000 nM total protein
[6] = target: the molecule itself; experiment: crystal structure; free protein crystals, protein at 2-14 mg/mL, diffraction data at 100 K; dimer of the protein with itself

Molecule	binding result [6]	also measured
OM operator duplex		Kd [1]: 15.8 nM; Kd [2]: 2.6 nM; Kd [3]: 5.5 nM; Kd [4]: 1.8 nM; Kd [5]: 0.51 nM
B1	binds	
B2	binds	
B3	binds	
B4	binds	
B5	binds	
B6	binds	

From paper PMC4041747, “Structural and Mutagenic Analysis of the RM Controller Protein C.Esp1396I” (PLoS ONE, 2014)
